{"source": "patent JPH06217786A", "binders": {"B1": {"name": "抗FHV−1キメラ抗体FH2 (cat-type anti-FHV-1 chimeric antibody FH2) (antibody, part only; not given: cat constant regions, part only)", "heavy, part": "QVTLKESGPGILQPSQTLSLTCSFSGFSLSTSGMGAGWIRQPSGKGLEWLAHIWWDDVKRYNPALKSRLTISKDTSSSQVFLKIASVDTADTATYFCVRSQIYFDYDGAWFPFWGQGTLVTVSA", "light, part": "DIVLTQSPATLSVTPGDSVSLSCRASQSISNNLHWYQQKSHESPRLLIKYASQSISGIPSRFSGSGSGTDFTLSINSVETEDFGMYFCQQSNSWPHTFGAGTKLELK"}}, "molecular_target": "FHV−1-K1ウイルス粒子 (feline herpesvirus-1, strain K1, virus particles; crude ammonium sulfate precipitate)", "assay": "cell-based or functional assay", "data": [{"binder": "B1", "values": [{"measurement": "最低有効中和濃度 (lowest effective neutralising concentration; 100 TCID50 FHV-1, CPE on CRFK cells)", "result": 1.95, "unit": "µg/mL"}]}]}
